For one experiment, the target named is T1, hTie2-Fc (R&D Systems) (human, UniProt Q02763 23-745).
T1 construct: Bought fusion protein; also called hTie-2/Fc fusion protein; not shown: Fc of human IgG1
The experiment is described as follows: Complex ELISA: plate coated with Tie2-Fc (4 ug/ml), 10D6 2 ug/ml without Ang2, anti-mouse IgG-HRP, OD450. The method, then:
A 96-well MaxiSorp™ flat-bottom plate (Nunc) was coated with 4 μg/ml of Tie2-Fc (R&D systems) or BSA (Sigma). Then, the plate was washed five times with 0.05% (v/v) Tween-20-containing PBS (Phosphate Buffer Saline) and blocked with 1% (v/v) BSA (Bovine serum albumin; Sigma)-containing PBS at a room temperature for 2 hours. […] After that, an anti-mouse IgG antibody (Sigma) conjugated with HRP diluted in 1% (v/v) BSA-containing PBS at a ratio of 1:5,000 (v/v) was added in an amount of 100 ul to each well to react at a room temperature for 1 hour and then, the plate was washed five times with PBST. Lastly, 100 ul (microliter) of TMB substrate (Cell Signaling) was added to each well of the plate to induce color development for 3 min. and then, the reaction was ceased by the addition of 100 ul of Stop solution (Cell Signaling) and OD450 values were measured on a plate reader (Molecular Devices).
(In general: In an ELISA, binding on a coated surface is turned into a signal by an enzyme label.)

Experiment [1] concerns the target T2, recombinant hAng-2 (C-His, R&D Systems) (human, UniProt O15123 19-496).
T2 construct: Bought protein; also called human Ang-2 protein; C-terminal histidine-tagged human Ang2 (R&D Systems); not shown: C-terminal His tag
T2 sequence: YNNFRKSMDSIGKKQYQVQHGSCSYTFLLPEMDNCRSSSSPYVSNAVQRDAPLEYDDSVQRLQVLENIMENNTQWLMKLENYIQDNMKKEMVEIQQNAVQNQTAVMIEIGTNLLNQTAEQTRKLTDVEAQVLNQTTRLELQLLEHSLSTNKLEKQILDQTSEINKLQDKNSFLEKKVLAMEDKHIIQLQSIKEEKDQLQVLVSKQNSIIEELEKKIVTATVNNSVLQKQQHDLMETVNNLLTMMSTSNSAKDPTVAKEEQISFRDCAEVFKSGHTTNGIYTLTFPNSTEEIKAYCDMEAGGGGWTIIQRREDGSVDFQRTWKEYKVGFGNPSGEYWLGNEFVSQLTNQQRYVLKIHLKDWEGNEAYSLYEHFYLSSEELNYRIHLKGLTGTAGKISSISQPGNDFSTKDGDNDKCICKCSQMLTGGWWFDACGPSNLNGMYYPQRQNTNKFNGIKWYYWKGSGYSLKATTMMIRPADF
The experiment is described as follows: SPR, BIAcore T100; hAng2 (C-His) captured by anti-His antibody on CM5, antibody as analyte. How it is done:
The binding affinity (KD values) of the antibodies to human Ang2 protein was measured by an SPR method using a BIAcore T100 (GE Healthcare). 25 μg/ml anti-His antibody was immobilized on a CM5 sensor chip (GE healthcare) using a pH 5.0 acetate solution and an amine coupling kit (GE Healthcare). 6 μg/ml of a recombinant hAng2 (C-His, R&D Systems) protein was flowed onto the chip to be captured at 100 to 200 RU levels.
Background: In SPR one partner is held on a chip, and binding of the other changes the refractive index at the surface.

The target in experiment [2] is T3, Ang2 protein (R&D systems) (human, UniProt O15123 19-496).
T3 sequence: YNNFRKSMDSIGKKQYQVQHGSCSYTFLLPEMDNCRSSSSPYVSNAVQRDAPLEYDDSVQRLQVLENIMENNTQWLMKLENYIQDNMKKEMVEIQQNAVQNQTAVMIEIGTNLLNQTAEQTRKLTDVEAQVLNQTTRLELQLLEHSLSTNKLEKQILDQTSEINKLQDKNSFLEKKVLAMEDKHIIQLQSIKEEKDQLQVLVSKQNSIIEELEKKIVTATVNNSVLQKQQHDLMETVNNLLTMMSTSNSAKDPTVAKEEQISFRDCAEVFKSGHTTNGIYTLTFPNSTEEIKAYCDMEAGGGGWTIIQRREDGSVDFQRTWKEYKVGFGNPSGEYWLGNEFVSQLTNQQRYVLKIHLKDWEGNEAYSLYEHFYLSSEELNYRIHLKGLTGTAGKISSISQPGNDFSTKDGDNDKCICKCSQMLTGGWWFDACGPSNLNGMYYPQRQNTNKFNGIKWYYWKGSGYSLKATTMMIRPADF
The experiment is described as follows: cell-based or functional assay.

The target in experiment [3] is T4, Ang2 RBD S417A, FLAG-tagged (human, UniProt O15123 281-496, limits assumed).
T4 chain: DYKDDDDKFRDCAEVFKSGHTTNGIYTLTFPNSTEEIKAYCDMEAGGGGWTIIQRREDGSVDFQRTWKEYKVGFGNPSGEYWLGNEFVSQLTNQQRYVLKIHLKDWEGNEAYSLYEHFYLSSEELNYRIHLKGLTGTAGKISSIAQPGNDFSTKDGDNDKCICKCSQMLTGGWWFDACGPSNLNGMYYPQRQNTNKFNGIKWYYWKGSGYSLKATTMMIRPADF
The experiment is described as follows: ELISA, antibody coated, FLAG-tagged mutant Ang2 RBD detected with anti-FLAG-HRP. How it is done:
(§1) To verify the epitope (or specific binding site) of the anti-Ang2 antibody prepared in Reference Example 2.3, an ELISA was performed using a recombinant protein where a receptor binding domain (RBD) of Ang2 protein in the form of being tagged with Flag was mutated by artificial means.
(§2) Each well of a 96-well MaxiSorp™ flat-bottom plate (Nunc) was coated with 50 ul (microliter) of 1000 nM antibody. Then, the plate was washed five times with 0.05% (v/v) Tween-20-containing PBS (PBST) and blocked with 1% (v/v) BSA-containing PBS at a room temperature for 2 hours. 250 ng of each mutant Ang2 protein obtained by substituting S417, Q418, P419, N421, 1434, D448, A449, P452, Y460, N467, K468, or F469 residue of Ang2 protein tagged with a FLAG sequence ([…], Sigma) at its N-terminal with alanine was added to each well of the plate, which was then allowed to react at a room temperature for 2 hours.
(§3) Finally, 50 ul of TMB substrates (Cell signaling) was added to each well of the plate to induce color development at a room temperature for 3 min. and the reaction was ceased by the addition of 50 ul of Stop solution (Cell signaling) and then, OD450 values were measured on a plate reader (Molecular Devices). By comparing binding affinities with mutated Ang2 to those of unmutated Ang2, each epitope of Ang2 antibodies was identified. The obtained measurement results of the binding affinities (%) with mutant Ang2 against the binding affinity with the native Ang2 are shown in the following Table 13.

Experiment [4] concerns the target T5, Ang2 RBD D448A, FLAG-tagged (human, UniProt O15123 281-496, limits assumed).
T5 chain: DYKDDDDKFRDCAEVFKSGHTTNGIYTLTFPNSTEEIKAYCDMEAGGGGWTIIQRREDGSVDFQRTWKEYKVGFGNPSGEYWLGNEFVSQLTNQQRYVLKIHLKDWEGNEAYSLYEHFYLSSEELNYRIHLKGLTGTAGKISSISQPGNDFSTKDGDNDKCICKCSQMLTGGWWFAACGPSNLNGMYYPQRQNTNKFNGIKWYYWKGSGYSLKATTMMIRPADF
Described as above. How it is done:
as §1, §2, §3

T1 sequence (Q02763 23-745 limits assumed): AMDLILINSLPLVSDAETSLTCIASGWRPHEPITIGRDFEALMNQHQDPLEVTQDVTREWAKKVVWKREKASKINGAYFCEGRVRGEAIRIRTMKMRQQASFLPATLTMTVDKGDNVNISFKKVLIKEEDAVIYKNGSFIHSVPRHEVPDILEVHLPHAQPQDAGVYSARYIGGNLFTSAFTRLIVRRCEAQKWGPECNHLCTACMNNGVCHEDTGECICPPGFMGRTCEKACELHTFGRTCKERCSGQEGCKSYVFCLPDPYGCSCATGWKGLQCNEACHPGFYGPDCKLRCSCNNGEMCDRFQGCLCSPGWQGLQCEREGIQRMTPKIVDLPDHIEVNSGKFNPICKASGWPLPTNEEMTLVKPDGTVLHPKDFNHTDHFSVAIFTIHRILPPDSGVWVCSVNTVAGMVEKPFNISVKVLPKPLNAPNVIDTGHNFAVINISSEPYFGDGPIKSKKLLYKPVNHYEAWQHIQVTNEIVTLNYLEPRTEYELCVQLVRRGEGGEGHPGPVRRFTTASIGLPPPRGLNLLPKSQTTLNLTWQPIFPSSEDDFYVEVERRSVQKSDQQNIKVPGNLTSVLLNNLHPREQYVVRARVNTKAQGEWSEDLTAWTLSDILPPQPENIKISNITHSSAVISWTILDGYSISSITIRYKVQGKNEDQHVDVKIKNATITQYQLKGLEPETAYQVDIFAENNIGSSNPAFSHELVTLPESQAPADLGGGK

B1: SAIT-ANG2-AB-m10D6 (antibody, V domains shown)
VH: DVQLQESGPDLVKPSQSLSLTCTVTGYSITSDYAWNWIRQFPGNKLEWMGYINYSGNTDYNPSLKSRSSITRDTSKNQFFLQLNSVTTGDTATYYCARGNFEGAMDYWGQGTSVTVSS
VL: SIVMTQTPKFLLVSAGDRVTITCKASQSVSNDVAWYQQKPGQSPKLLIYYASNRYPGVPDRFTGSGYGTDFTFTISTVQAEDLAVYFCQQDYSSPWTFGGGTKLEIK
notes: Mouse monoclonal antibody purified from a hybridoma (KCLRF-BP-00295); it is not applied here; also called mouse antibody 10D6; 10D6 antibody
The Kd is the constant that tells how readily two partners part at equilibrium. What is called koff is the rate constant with which the complex falls apart. The kon is the second-order rate constant of association. Take B1: the binding result in the experiment with hTie2-Fc (R&D Systems) is “no binding (tested: 2 ug/ml)”. For the same molecule, in experiment [1], the Kd is 8 nM, the koff is 0.000193 s⁻¹ and the kon turned out to be 24100 M⁻¹ s⁻¹. For the same molecule, in experiment [2], the “Tie2 phosphorylation effect against control antibody RG” value is roughly 8.6 fold and the “Tie2 phosphorylation level (pTyr/Tie2 ratio, HUVEC, 60 nM antibody)” value was found to be 180%. Besides, the “binding affinity (%) with mutant Ang2 against the binding affinity with the native Ang2” value in experiment [3] was 101%. Moreover, the “binding affinity (%) with mutant Ang2 against the binding affinity with the native Ang2” value in experiment [4] came out at 105%.
